Experimental data from patent US20220306765A1 (SUZHOU TRANSCENTA THERAPEUTICS, published 2022).
Values belong to the binder of their own block, whether it stands above or below them.

Key:
human CLDN18.2 [1] = target: T1, human CLDN18.2 (human); experiment: FACS, NUGC4 cells
T1 construct: also called hCLDN18.2; Claudin-18 splice variant 2

human CLDN18.2 [2] = target: T1, human CLDN18.2; experiment: cell-based or functional assay
human CLDN18.2 [3] = target: T1, human CLDN18.2; experiment: FACS, MKN45-CLDN18.2-high cells
Experimental: (§1) Log-phase HEK293-CLDN18.2 and NUGC4 cells were re-suspended in PBS. After 3× cell wash by using FACS washing buffer (PBS+2% FBS), 100 μl/well diluted hybridoma Abs with a range from 400 nM to 0.002 nM were added into each well for incubation at 4° C. for 30 min. Again, cells were washed 3 times by using FACS washing buffer and then incubated with 100 μl/well goat anti-mIgG-FITC (1:400 dilution) at 4° C. for another 30 min. After a final 3× wash using FACS washing buffer, cells were analyzed by flow Cytometry.

human CLDN18.2 [4] = target: T1, human CLDN18.2; experiment: FACS, HEK293-CLDN18.2 cells
[5] = target: T2, human CLDN18.2-mRFP1, wild-type (human); experiment: FACS, transfected HEK293, 10 µg/ml antibody;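 further: antibody binding read by flow cytometry with a FITC-labelled anti-human IgG secondary, gated on RFP-positive cells, each mutant signal expressed against wild-type CLDN18.2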
T2 construct: human CLDN18.2 (amino acid 1-261) fused to mRFP1 (amino acid 1-225), transiently expressed in HEK293 cells; also called wild-type human CLDN18.2-mRFP
Experimental: (§2) The transfected HEK293-CLDN18.2 or HEK293-CLDN18.1 cell were resuspended in PBS with 2% BSA at density of 10\hat{ }5/well, 100 μl/well. […] Next, cells were washed 3 times by FACS washing buffer and incubated with 100 μl/well goat anti-hIgG (H+L)-FITC (1:200 dilution) at 4° C. for another 30 min. Finally, cells were washed 3 times by FACS washing buffer and analyzed by Flow Cytometry. To analyze binding to CLDN18.2 transfected cells, the RFP positive cells were used for control gating.

human CLDN18.2-mRFP Q29M = human CLDN18.2-mRFP Q29M (human); experiment: FACS, transfected HEK293, 10 µg/ml antibody;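 further: antibody binding read by flow cytometry with a FITC-labelled anti-human IgG secondary, gated on RFP-positive cells, each mutant signal expressed against wild-type CLDN18.2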
Chain of human CLDN18.2-mRFP Q29M (human) (chain, as listed by the source Q29M Q29M limits assumed): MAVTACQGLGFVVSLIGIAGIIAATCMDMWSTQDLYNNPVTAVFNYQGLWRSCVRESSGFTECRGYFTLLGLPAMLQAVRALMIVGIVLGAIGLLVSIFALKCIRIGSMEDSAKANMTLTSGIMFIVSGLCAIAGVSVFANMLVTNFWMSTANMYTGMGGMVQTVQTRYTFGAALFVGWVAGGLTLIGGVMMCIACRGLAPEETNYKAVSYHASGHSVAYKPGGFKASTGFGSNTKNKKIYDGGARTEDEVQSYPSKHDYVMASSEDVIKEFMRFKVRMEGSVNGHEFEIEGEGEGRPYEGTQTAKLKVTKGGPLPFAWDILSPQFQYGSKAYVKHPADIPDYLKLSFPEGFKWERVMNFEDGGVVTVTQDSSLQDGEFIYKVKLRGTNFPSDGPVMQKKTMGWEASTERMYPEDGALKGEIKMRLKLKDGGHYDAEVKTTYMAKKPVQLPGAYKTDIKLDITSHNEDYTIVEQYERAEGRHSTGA
Experimental: as §2

human CLDN18.2-mRFP N37D = human CLDN18.2-mRFP N37D (human); experiment: FACS, transfected HEK293, 10 µg/ml antibody;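 further: antibody binding read by flow cytometry with a FITC-labelled anti-human IgG secondary, gated on RFP-positive cells, each mutant signal expressed against wild-type CLDN18.2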
Chain of human CLDN18.2-mRFP N37D (human) (chain, as listed by the source N37D N37D limits assumed): as the sequence (chain, as listed by the source Q29M Q29M limits assumed) above, with M29Q, N37D counted along it
Experimental: as §2

human CLDN18.2-mRFP A42S = human CLDN18.2-mRFP A42S (human); experiment: FACS, transfected HEK293, 10 µg/ml antibody;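 further: antibody binding read by flow cytometry with a FITC-labelled anti-human IgG secondary, gated on RFP-positive cells, each mutant signal expressed against wild-type CLDN18.2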
Chain of human CLDN18.2-mRFP A42S (human) (chain, as listed by the source A42S A42S limits assumed): as the sequence (chain, as listed by the source Q29M Q29M limits assumed) above, with M29Q, A42S counted along it
Experimental: as §2

human CLDN18.2-mRFP N45Q = human CLDN18.2-mRFP N45Q (human); experiment: FACS, transfected HEK293, 10 µg/ml antibody
Chain of human CLDN18.2-mRFP N45Q (human) (chain, as listed by the source N45Q N45Q limits assumed): as the sequence (chain, as listed by the source Q29M Q29M limits assumed) above, with M29Q, N45Q counted along it
Experimental: as §2

human CLDN18.2-mRFP Q47E = human CLDN18.2-mRFP Q47E (human); experiment: FACS, transfected HEK293, 10 µg/ml antibody
Chain of human CLDN18.2-mRFP Q47E (human) (chain, as listed by the source Q47E Q47E limits assumed): as the sequence (chain, as listed by the source Q29M Q29M limits assumed) above, with M29Q, Q47E counted along it
Experimental: as §2

human CLDN18.2-mRFP E56Q = human CLDN18.2-mRFP E56Q (human); experiment: FACS, transfected HEK293, 10 µg/ml antibody
Chain of human CLDN18.2-mRFP E56Q (human) (chain, as listed by the source E56Q E56Q limits assumed): as the sequence (chain, as listed by the source Q29M Q29M limits assumed) above, with M29Q, E56Q counted along it
Experimental: as §2

human CLDN18.2-mRFP G65P = human CLDN18.2-mRFP G65P (human); experiment: FACS, transfected HEK293, 10 µg/ml antibody
Chain of human CLDN18.2-mRFP G65P (human) (chain, as listed by the source G65P G65P limits assumed): as the sequence (chain, as listed by the source Q29M Q29M limits assumed) above, with M29Q, G65P counted along it
Experimental: as §2

human CLDN18.2-mRFP L69I = human CLDN18.2-mRFP L69I (human); experiment: FACS, transfected HEK293, 10 µg/ml antibody
Chain of human CLDN18.2-mRFP L69I (human) (chain, as listed by the source L69I L69I limits assumed): as the sequence (chain, as listed by the source Q29M Q29M limits assumed) above, with M29Q, L69I counted along it
Experimental: as §2

human CLDN18.1 = target: T3, human CLDN18.1 (human, UniProt P56856 1-261); experiment: flow cytometry on HEK293-CLDN18.1 cells, one antibody concentration
T3 construct: on HEK293-CLDN18.1 cells; also called Claudin-18 splice variant 1; NP_057453.1
T3 sequence (P56856 whole entry, canonical isoform): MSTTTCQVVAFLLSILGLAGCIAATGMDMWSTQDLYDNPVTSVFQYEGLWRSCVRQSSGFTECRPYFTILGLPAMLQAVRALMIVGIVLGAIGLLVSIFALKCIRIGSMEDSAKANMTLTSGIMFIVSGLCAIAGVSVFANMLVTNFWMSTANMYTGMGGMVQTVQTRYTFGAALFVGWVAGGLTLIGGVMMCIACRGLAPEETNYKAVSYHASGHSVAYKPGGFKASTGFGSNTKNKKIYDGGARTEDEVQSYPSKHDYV

human CLDN18.2 [6] = target: T1, human CLDN18.2; experiment: flow cytometry on HEK293-CLDN18.2 cells; unit taken from the concentration axis
Experimental: as §1

human CLDN18.2 [7] = target: T1, human CLDN18.2; experiment: flow cytometry on MKN45-CLDN18.2-high cells; unit taken from the concentration axis
Experimental: as §1

human CLDN18.2 [8] = target: T1, human CLDN18.2; experiment: FACS, HEK293-CLDN18.2 cells; binds: FACS on overexpressing HEK293-CLDN18.2 cells
human CLDN18.2 [9] = target: T1, human CLDN18.2; experiment: KinExA, NUGC4 cells; binds: Kd on NUGC4 gastric cells (endogenous CLDN18.2), affinity assay, not FACS EC50
human CLDN18.2 [10] = target: T1, human CLDN18.2; experiment: flow cytometry on BxPC-3-CLDN18.2 cells (y axis printed as Luminescence); unit taken from the concentration axis
human CLDN18.2 [11] = target: T1, human CLDN18.2; experiment: flow cytometry on MIA PaCa-2-CLDN18.2 cells (y axis printed as Luminescence); unit taken from the concentration axis
human CLDN18.2 [12] = target: T1, human CLDN18.2; experiment: flow cytometry on SNU-601 cells; unit taken from the concentration axis; the fitted value lies far above the highest concentration tested (about 30 ug/ml); the curve rises only from about 2 ug/ml on, to Mean FITC-A about 35000
human CLDN18.2 [13] = target: T1, human CLDN18.2; experiment: flow cytometry on KATOIII cells; unit taken from the concentration axis; the fitted value lies far above the highest concentration tested (about 30 ug/ml); the curve rises only from about 2 ug/ml on, to Mean FITC-A about 43000
human CLDN18.2 [14] = target: T1, human CLDN18.2; experiment: flow cytometry on MKN45-CLDN18.2-medium cells; unit taken from the concentration axis; the fitted value lies far above the highest concentration tested (about 60 ug/ml); the curve lies on the isotype control up to about 7 ug/ml and reaches Mean FITC about 4200 at about 60 ug/ml
Experimental: as §1

human FcγRIIIa-V176 [15] = target: T4, human FcγRIIIa-V176 (human, UniProt P08637 17-208); experiment: cell-based or functional assay
T4 sequence (P08637 17-208 F176V limits assumed): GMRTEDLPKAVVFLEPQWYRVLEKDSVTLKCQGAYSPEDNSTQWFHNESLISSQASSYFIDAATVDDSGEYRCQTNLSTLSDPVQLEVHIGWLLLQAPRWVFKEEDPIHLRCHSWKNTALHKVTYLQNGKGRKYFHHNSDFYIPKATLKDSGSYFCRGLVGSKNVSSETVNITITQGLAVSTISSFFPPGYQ

human FcγRIIIa-V176 [16] = target: T4, human FcγRIIIa-V176; experiment: ELISA, antibody coated, His-tagged FcγR in solution
Experimental: (§3) After blocking and washing, the serial diluted (5 g/ml˜0.02 μg/ml) FcγRs labeled with His-tag were added and incubated for 1 h. Then anti-His-HRP and TMB were added for detection of FcγR binding at OD450 nm.

human FcγRIIIa-F176 = target: T5, human FcγRIIIa-F176 (human, UniProt P08637 17-208); experiment: as above
T5 construct: His-tagged (ELISA); also called hFcγRIIIA (F176)-his
T5 sequence (P08637 17-208 limits assumed): as the sequence (P08637 17-208 F176V limits assumed) above, with V160F counted along it
Experimental: as §3

human C1q = human C1q (human, UniProt P02745 23-245; P02746 28-253; P02747 29-245); experiment: ELISA: antibody immobilised, human C1q titrated, anti-C1q-HRP; the concentration axis is that of C1q
Chain of human C1q (P02745 23-245, chain 1 of 3): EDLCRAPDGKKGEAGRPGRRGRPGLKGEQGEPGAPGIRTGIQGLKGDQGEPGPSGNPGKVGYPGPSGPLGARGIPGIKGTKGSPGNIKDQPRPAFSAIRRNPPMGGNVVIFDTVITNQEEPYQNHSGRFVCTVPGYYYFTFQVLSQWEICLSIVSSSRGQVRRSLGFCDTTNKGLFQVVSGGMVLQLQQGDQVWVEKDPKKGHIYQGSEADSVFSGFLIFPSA
Chain of human C1q (P02746 28-253, chain 2 of 3): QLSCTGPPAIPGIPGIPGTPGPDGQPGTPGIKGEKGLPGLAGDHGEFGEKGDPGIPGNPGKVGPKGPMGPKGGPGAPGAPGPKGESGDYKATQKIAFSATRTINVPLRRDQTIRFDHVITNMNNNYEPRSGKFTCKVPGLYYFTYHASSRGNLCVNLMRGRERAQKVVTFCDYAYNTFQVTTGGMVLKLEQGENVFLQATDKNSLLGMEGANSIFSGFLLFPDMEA
Chain of human C1q (P02747 29-245, chain 3 of 3): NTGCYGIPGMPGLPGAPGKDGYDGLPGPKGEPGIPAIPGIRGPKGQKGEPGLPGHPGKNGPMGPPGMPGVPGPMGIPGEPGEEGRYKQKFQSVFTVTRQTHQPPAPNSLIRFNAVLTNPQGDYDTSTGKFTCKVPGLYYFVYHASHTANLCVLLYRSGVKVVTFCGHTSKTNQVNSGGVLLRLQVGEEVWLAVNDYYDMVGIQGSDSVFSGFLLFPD
Experimental: C1q binding assay was taken following method. Two antibodies were immobilized on the plate. […] Then anti-C1q-HRP and TMB were added for detection at OD450 nm.

Cyno FcγRIII-his = target: T6, Cyno FcγRIII-his (cyno, UniProt Q8SPW2 17-208); experiment: ELISA: antibody coated, Cyno FcγRIII-his titrated, anti-His-HRP; the concentration axis is that of the receptor
T6 construct: also called cyno FcγRs
T6 sequence (Q8SPW2 17-208 limits assumed): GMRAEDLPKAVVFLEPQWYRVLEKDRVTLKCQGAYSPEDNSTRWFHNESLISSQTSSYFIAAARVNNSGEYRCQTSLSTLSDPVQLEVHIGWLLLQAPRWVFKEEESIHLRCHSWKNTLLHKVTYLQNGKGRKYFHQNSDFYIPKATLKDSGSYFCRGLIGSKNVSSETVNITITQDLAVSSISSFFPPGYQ
Experimental: as §3

human FcγRI = target: T7, human FcγRI (human, UniProt P12314 16-288); experiment: ELISA: antibody coated at 1 ug/ml, hFcγRI-his titrated, anti-His-HRP; the concentration axis is that of the receptor
T7 construct: also called hFcγRI-his
T7 sequence (P12314 16-288 limits assumed): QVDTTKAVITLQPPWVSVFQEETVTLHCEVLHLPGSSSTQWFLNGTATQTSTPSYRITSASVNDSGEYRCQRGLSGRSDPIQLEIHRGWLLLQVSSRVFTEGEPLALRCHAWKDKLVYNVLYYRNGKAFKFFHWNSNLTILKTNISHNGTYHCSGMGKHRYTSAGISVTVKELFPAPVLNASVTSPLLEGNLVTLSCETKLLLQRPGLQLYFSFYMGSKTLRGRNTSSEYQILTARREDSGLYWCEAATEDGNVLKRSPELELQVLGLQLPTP
Experimental: as §3

FcγRIV-his = target: T8, FcγRIV-his (Mus musculus (Mouse), UniProt A0A0B4J1G0 21-203); experiment: ELISA: antibody coated at 1 ug/ml, Mouse FcγRIV-his titrated, anti-His-HRP; the concentration is that of the receptor
T8 sequence: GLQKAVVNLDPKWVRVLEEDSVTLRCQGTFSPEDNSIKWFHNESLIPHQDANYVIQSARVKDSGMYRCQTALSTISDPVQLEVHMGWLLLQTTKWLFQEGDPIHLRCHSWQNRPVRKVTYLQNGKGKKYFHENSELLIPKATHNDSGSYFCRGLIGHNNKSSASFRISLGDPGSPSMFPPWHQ
Experimental: as §3

human FcγRIIIa-V176 [17] = target: T4, human FcγRIIIa-V176; experiment: ELISA: antibody coated at 1 ug/ml, hFcγRIIIA(V176)-his titrated, anti-His-HRP; the concentration is that of the receptor
Experimental: as §3

mouse FcγRI-his = target: T9, mouse FcγRI-his (mouse, UniProt P26151 25-297); experiment: ELISA: antibody coated at 1 ug/ml, Mouse FcγRI-his titrated, anti-His-HRP; the concentration axis is that of the receptor
T9 sequence (looked up): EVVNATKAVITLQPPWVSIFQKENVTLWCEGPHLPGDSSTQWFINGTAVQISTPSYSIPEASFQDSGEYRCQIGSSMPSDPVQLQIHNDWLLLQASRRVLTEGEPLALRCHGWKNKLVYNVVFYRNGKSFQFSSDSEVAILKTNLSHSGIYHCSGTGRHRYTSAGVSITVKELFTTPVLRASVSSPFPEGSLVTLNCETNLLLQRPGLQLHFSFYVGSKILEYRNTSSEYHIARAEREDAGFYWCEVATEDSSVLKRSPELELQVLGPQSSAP
Experimental: as §3

mouse FcγRIIB-his = target: T10, mouse FcγRIIB-his (mouse, UniProt P08101 30-207, limits assumed); experiment: ELISA: antibody coated at 1 ug/ml, Mouse FcγRIIB-his titrated, anti-His-HRP; the concentration axis is that of the receptor
T10 sequence (looked up): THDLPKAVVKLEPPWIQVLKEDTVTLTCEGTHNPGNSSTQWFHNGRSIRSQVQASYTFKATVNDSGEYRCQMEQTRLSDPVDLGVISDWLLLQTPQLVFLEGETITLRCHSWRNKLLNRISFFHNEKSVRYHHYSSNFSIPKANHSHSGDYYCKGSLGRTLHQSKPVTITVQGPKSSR
Experimental: as §3

[18] = target: T11, Human FcRn (FCGRT&B2M) Protein (human, UniProt P55899 24-297; P61769 21-119); experiment: ELISA at pH 6.0: antibody immobilised, biotinylated FcRn titrated, Streptavidin-HRP; the concentration axis is that of FcRn
T11 construct: also called huFcRn-biotin
Experimental: FcRn binding was evaluated by an ELISA method. […] Biotinylated FcRn was serial diluted in a pH6.0 dilution buffer (1 μg/ml˜0.0002 μg/ml) and then added for 1 h incubation. Next, Streptavidin-HRP and TMB were added for detection of binding at OD450 nm.

- EC50 (human CLDN18.2 [1]): 7.8 µg/mL
- ADCC reporter assay (Jurkat-NFAT-luc-FcγRIIIA-V176), MKN45-CLDN18.2-medium target cells (human CLDN18.2 [2]): 50 fold
- ADCC reporter assay, NUGC4 target cells (human CLDN18.2 [2]): > 40 fold
- fold increase in binding potency vs IMAB362 (human CLDN18.2 [3]): ~2 fold
- EC50 (human CLDN18.2 [4]): 0.96 µg/mL
- binding percentage vs wild-type CLDN18.2 [5]: 100%
- binding percentage vs wild-type CLDN18.2 (human CLDN18.2-mRFP Q29M): 83.5%
- binding percentage vs wild-type CLDN18.2 (human CLDN18.2-mRFP N37D): 106%
- binding percentage vs wild-type CLDN18.2 (human CLDN18.2-mRFP A42S): 69.2%
- binding percentage vs wild-type CLDN18.2 (human CLDN18.2-mRFP N45Q): 92%
- binding percentage vs wild-type CLDN18.2 (human CLDN18.2-mRFP Q47E): 109%
- binding percentage vs wild-type CLDN18.2 (human CLDN18.2-mRFP E56Q): 6.57%
- binding percentage vs wild-type CLDN18.2 (human CLDN18.2-mRFP G65P): 118%
- binding percentage vs wild-type CLDN18.2 (human CLDN18.2-mRFP L69I): 112%
- binding result (human CLDN18.1): no binding (tested: 10 ug/ml)
- EC50 (human CLDN18.2 [6]): 1.35 µg/mL
- EC50 (human CLDN18.2 [7]): 1.87 µg/mL
B1: 18B10-C (antibody, human IgG1, V domains shown)
VH: EFQLQQSGPELEKPGASVRISCKTSGYSFTGYNMNWVKQSNGESLEWIGNIDPYYGGTSYNQKFKGKATLTVDKSSSTAYMQLKSLTSEDSAVYYCARMYHGNAFDYWGQGTTLTVSS
VL: DIVMTQSPSSLTVTAGEKVTMSCKSSQSLLNSGNLKNYLTWYQQKPGQPPKLLIYWASTRKSGVPDRFTGSGSGTDFTLTLSSVQAEDLAVYYCQNDYSYPLTFGAGTKLELK
notes: also called chimeric 18B10

- ADCC EC50 (PBMC effectors, PI staining), NUGC4 cells (human CLDN18.2 [2]): 0.54 µg/mL
- binding percentage vs wild-type CLDN18.2 [5]: 100%
- EC50 (human CLDN18.2 [8]): 0.42 µg/mL
- EC50 (human CLDN18.2 [7]): 4.05 µg/mL
- Kd (human CLDN18.2 [9]): 2.58 nM
- EC50 (human CLDN18.2 [10]): 2.47 µg/mL
- EC50 (human CLDN18.2 [11]): 0.66 µg/mL
- EC50 (human CLDN18.2 [12]): 15300 µg/mL
- EC50 (human CLDN18.2 [13]): 18000 µg/mL
- EC50 (human CLDN18.2 [14]): ~16800 µg/mL
B2: IMAB362 (antibody, human IgG1, V domains shown)
VH: QVQLQQPGAELVRPGASVKLSCKASGYTFTSYWINWVKQRPGQGLEWIGNIYPSDSYTNYNQKFKDKATLTVDKSSSTAYMQLSSPTSEDSAVYYCTRSWRGNSFDYWGQGTTLTVSS
VL: DIVMTQSPSSLTVTAGEKVTMSCKSSQSLLNSGNQKNYLTWYQQKPGQPPKLLIYWASTRESGVPDRFTGSGSGTDFTLTISSVQAEDLAVYYCQNDYSYPFTFGSGTKLEIK
notes: chimeric IgG1 benchmark antibody, expressed according to US2009169547A1; also called IMAB362-analog; IMB362

- ADCC reporter EC50, NUGC4 targets, Jurkat-NFAT-luc-FcγRIIIA-V176 effectors (human FcγRIIIa-V176 [15]): 0.0097 µg/mL
- fold increased binding vs 18B10-HaLa wild-type (human FcγRIIIa-V176 [16]): 10 fold
- fold increased binding vs 18B10-HaLa wild-type (human FcγRIIIa-F176): 10 fold
- binding result (human C1q): binds
- binding result (Cyno FcγRIII-his): binds
- binding result (human FcγRI): binds
- EC50 (read off the curve) (FcγRIV-his): ~0.06 µg/mL
- EC50 (read off the curve) (human FcγRIIIa-V176 [17]): ~0.2 µg/mL
- binding result (mouse FcγRI-his): binds
- binding result (mouse FcγRIIB-his): binds
- binding result [18]: binds
B3: 18B10-HaLa-L235V/F243L/R292P/Y300L/P396L (antibody, human IgG1, kappa)
heavy: QVQLVQSGAEVKKPGASVKVSCKASGYTFTGYNMNWVRQAPGQGLEWMGNIDPYYGGTSYNQKFKGRVTMTIDKSTSTVYMELSSLRSEDTAVYYCARMYHGNAFDYWGQGTTVTVSSASTKGPSVFPLAPSSKSTSGGTAALGCLVKDYFPEPVTVSWNSGALTSGVHTFPAVLQSSGLYSLSSVVTVPSSSLGTQTYICNVNHKPSNTKVDKKVEPKSCDKTHTCPPCPAPELVGGPSVFLLPPKPKDTLMISRTPEVTCVVVDVSHEDPEVKFNWYVDGVEVHNAKTKPPEEQYNSTLRVVSVLTVLHQDWLNGKEYKCKVSNKALPAPIEKTISKAKGQPREPQVYTLPPSRDELTKNQVSLTCLVKGFYPSDIAVEWESNGQPENNYKTTPLVLDSDGSFFLYSKLTVDKSRWQQGNVFSCSVMHEALHNHYTQKSLSLSPGK
light: not shown
notes: Fc variant of 18B10-HaLa; also called 18B10-HaLa-VLPYLL; copies: 2 + 2
